± gives the uncertainty stated by the source.
B1: Tumor protein 63, residues 545 to 610; numbered along this chain, Q9H3D4 (parent)
chain: TDCSIVSFLARLGCSSCLDYFTTQGLTTIYQIEHYSMDDLASLKIPEQFRHAIWKGILDHRQLHEF

Variants of: B1
Experiment: abundance fitness (aPCA) (normalised: wild type 0, dead -1); higher = more abundant; growth selection in yeast, the domain comes from the species named
Settings: Homo sapiens

Abundance fitness, by site and new letter:
I29: R -0.285 ± 0.023, Y -0.049 ± 0.063, S -0.245 ± 0.024, F 0.063 ± 0.035, V -0.019 ± 0.023, M 0.042 ± 0.047, D -0.42 ± 0.053, L -0.027 ± 0.025, A -0.175 ± 0.042, N -0.719 ± 0.051, P -0.309 ± 0.04, H -0.432 ± 0.066, T -0.046 ± 0.024, K -0.366 ± 0.036, Q -0.355 ± 0.04, G -0.701 ± 0.035, W -0.052 ± 0.028, E -0.366 ± 0.036
E33: H -0.039 ± 0.044, S -0.052 ± 0.036, I -0.139 ± 0.069, K -0.112 ± 0.039, T -0.047 ± 0.045, L -0.06 ± 0.027, Q 0.013 ± 0.049, G -0.074 ± 0.019, P -0.772 ± 0.082, D -0.026 ± 0.068, F -0.06 ± 0.045, N -0.117 ± 0.041, W -0.046 ± 0.03, Y -0.098 ± 0.064, A -0.042 ± 0.029, C -0.05 ± 0.036
D38: Q -0.026 ± 0.045, P -0.105 ± 0.051, T -0.033 ± 0.03, N -0.071 ± 0.078, Y -0.055 ± 0.086, A -0.01 ± 0.031, F -0.07 ± 0.15, K -0.035 ± 0.13, L -0.039 ± 0.034, R -0.03 ± 0.022, E 0.004 ± 0.051, M 0.048 ± 0.26, C -0.082 ± 0.06, S -0.029 ± 0.042, G -0.021 ± 0.034, I -0.077 ± 0.031, V 0.01 ± 0.032, W -0.085 ± 0.04
T27: M -0.107 ± 0.033, C -0.133 ± 0.037, K -0.032 ± 0.038, L -0.084 ± 0.022, N -0.024 ± 0.028, Y -0.079 ± 0.038, W -0.135 ± 0.03, V -0.044 ± 0.022, D -0.057 ± 0.029, P -0.82 ± 0.07, R -0.053 ± 0.022, E -0.04 ± 0.029, I -0.075 ± 0.038, S -0.022 ± 0.022, A -0.105 ± 0.023, H -0.005 ± 0.061, G -0.123 ± 0.018, F -0.063 ± 0.035, Q -0.049 ± 0.035
I45: D -0.982 ± 0.093, G -0.913 ± 0.065, K -0.72 ± 0.078, A -0.721 ± 0.043, C -0.283 ± 0.037, L -0.034 ± 0.021, H -0.925 ± 0.2, M -0.143 ± 0.031, E -0.676 ± 0.06, F -0.358 ± 0.036
K44: C -0.052 ± 0.026, G 0.013 ± 0.022, W -0.154 ± 0.024, L -0.076 ± 0.023, E 0.002 ± 0.046, V -0.23 ± 0.026, A -0.037 ± 0.025, Q -0.014 ± 0.033, D -0.011 ± 0.038, T -0.061 ± 0.025, H -0.075 ± 0.046, I -0.4 ± 0.045, S -0.015 ± 0.022, Y -0.083 ± 0.037, F -0.081 ± 0.031, R -0.014 ± 0.02, M -0.039 ± 0.033, N -0.021 ± 0.045
L40: I -0.037 ± 0.04, D -0.897 ± 0.096, S -0.701 ± 0.038, G -0.993 ± 0.041, Y -0.277 ± 0.041, T -0.933 ± 0.078, V -0.122 ± 0.02, A -0.967 ± 0.06, C -0.509 ± 0.066, R -1.01 ± 0.067, P -0.893 ± 0.062, Q -0.909 ± 0.08, W -0.764 ± 0.047, M -0.134 ± 0.041, K -1.02 ± 0.3, F -0.043 ± 0.048, N -0.888 ± 0.13, E -1.03 ± 0.11
I32: W -0.898 ± 0.051, H -0.876 ± 0.24, M -0.169 ± 0.032, F -0.209 ± 0.068, P -0.953 ± 0.1, S -1.01 ± 0.088, L -0.062 ± 0.026, T -0.55 ± 0.044, G -0.832 ± 0.037, C -0.249 ± 0.046, N -0.841 ± 0.1, E -0.925 ± 0.11, R -1.01 ± 0.06, K -0.9 ± 0.14, A -0.672 ± 0.035, Q -0.931 ± 0.095
G25: Y -0.349 ± 0.04, W -0.733 ± 0.06
L43: V -0.134 ± 0.024, P -0.564 ± 0.042, S -0.386 ± 0.028, M -0.105 ± 0.045, Y -0.526 ± 0.056, F -0.245 ± 0.031, D -0.503 ± 0.042, C -0.171 ± 0.044, N -0.447 ± 0.057, H -0.296 ± 0.057, R -0.304 ± 0.025, K -0.283 ± 0.03, G -0.702 ± 0.034, T -0.396 ± 0.033
S42: G 0.051 ± 0.03, I 0.004 ± 0.034, M -0.001 ± 0.023, C -0.061 ± 0.035, P -0.176 ± 0.028, D 0.008 ± 0.041, W -0.097 ± 0.036, K 0 ± 0.043, E 0.008 ± 0.026, N 0.013 ± 0.025, Q -0.001 ± 0.038, L -0.01 ± 0.021, Y -0.069 ± 0.045, H -0.011 ± 0.021, V -0.011 ± 0.023, A -0.019 ± 0.029, T -0.01 ± 0.026
Y35: R -0.48 ± 0.021

— the Human Domainome abundance scans (Beltran et al. 2025)
